Assays:
[1] = target: Interferon alpha-2a (human) (UniProt P01563); assay: AUC; sedimentation velocity, 50000 rpm, histidine pH 7.5, 0 or 140 mM NaCl, 0.8, 0.4 and 0.2 mg/mL (A280 = 1, 0.5, 0.25); dimers and larger oligomers in concentration-dependent equilibrium
[2] = target: Interferon alpha-2a (human) (UniProt P01563); assay: AUC; sedimentation velocity, 50000 rpm, histidine pH 5, 0 or 140 mM NaCl, 0.8, 0.4 and 0.2 mg/mL (A280 = 1, 0.5, 0.25); monomer with a dimer in fast equilibrium with higher oligomers

## Interferon alpha-2a (from UniProt P01563 24-188) (natural protein)
[1]
  stoichiometry N: 2
[2]
  stoichiometry N: > 2 >=
